These are literature values, as cited in US20230090114A1, “METHODS FOR PROMOTING WEIGHT LOSS” (89BIO LTD., priority 2020, published 2023).

The conditions of this data set: in vivo; cited from earlier work.

B1: recombinant human FGF-21: recombinant human FGF-21 (SEQ ID NO: 1 is native human FGF-21) (protein, listed as Homo sapiens)
chain: MHPIPDSSPLLQFGGQVRQRYLYTDDAQQTEAHLEIREDGTVGGAADQSPESLLQLKALKPGVIQILGVKTSRFLCQRPDGALYGSLHFDPEACSFRELLLEDGYNVYQSEAHGLPLHLPGNKSPHRDPAPRGPARFLPLPGLPPALPEPPGILAPQPPDVGSSDPLSMVGPSQGRSPSYAS
In the case of B1, the half-life was 1 to 2 h.

Broadly, the half-life is how long it takes for the measured level to halve.
